The values below come from article PMC7934869 (JCI Insight, 2021).

Assay [1] has as its target T1, recombinant Plasmodium falciparum circumsporozoite protein (rPfCSP) (Plasmodium falciparum 3D7, UniProt Q7K740).
T1 construct: full-length circumsporozoite (CS) protein of 3D7, a clone of the NF54 strain of P. falciparum; also called CS protein
The experiment in a line: BLI; Octet RED384; rPfCSP on the sensor, purified IgG at 2, 1, 0.5, 0.25, 0.125 ug/mL; 1:1 model; apparent affinity. To be noted: both partners purified.

For assay [2], the target named is T1, recombinant Plasmodium falciparum …. The experiment in a line: BLI; Octet RED384; rPfCSP on the sensor, mouse serum 8 weeks after AAV administration with the mAb at 2, 1, 0.5, 0.25, 0.125 ug/mL; 1:1 model; apparent affinity. The settings on record: one partner purified. (Biolayer interferometry detects binding as a change in optical thickness at a sensor tip.)

T1 sequence (Q7K740 19-374): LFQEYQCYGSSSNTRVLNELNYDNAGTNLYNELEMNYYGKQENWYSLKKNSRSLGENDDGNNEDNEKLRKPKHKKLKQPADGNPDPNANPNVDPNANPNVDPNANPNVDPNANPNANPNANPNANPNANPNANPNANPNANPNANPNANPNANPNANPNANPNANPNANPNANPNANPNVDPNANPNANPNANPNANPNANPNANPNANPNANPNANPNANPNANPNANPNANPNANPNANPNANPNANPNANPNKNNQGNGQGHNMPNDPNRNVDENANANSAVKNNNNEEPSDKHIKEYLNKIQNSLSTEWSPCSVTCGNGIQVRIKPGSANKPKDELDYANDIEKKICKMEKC

B1: CIS43 human monoclonal antibody (antibody, V domains shown)
VH: QVQLVQSGAEVKKPGASVKVSCKASGYTFTSYAIHWVRQAPGQRLEWMGWIKAGNGNTRYSQKFQDRVTITRDTSTTTAYMELSSLRSEDTAVYYCALLTVLTPDDAFDIWGQGTMVTVSS
VL: not shown
notes: the secreted chain begins at QVQLVQ; light chain of CIS43; IgG1 by the printed constant region; also called rCIS43; CIS43 IgG; source: Expi293 (GenScript) or CHO cells, purified (protein-A column; Superdex200 before BLI)
Take B1: in assay [1], the Kd came to 5 nM.

B2: CIS43 expressed in vivo from an AAV vector (CIS43-AAV), in mouse serum (antibody, V domains shown)
VH: QVQLVQSGAEVKKPGASVKVSCKASGYTFTSYAIHWVRQAPGQRLEWMGWIKAGNGNTRYSQKFQDRVTITRDTSTTTAYMELSSLRSEDTAVYYCALLTVLTPDDAFDIWGQGTMVTVSS
VL: not shown
notes: synthesised and cloned into the VIP vector; human IgG1 heavy chain constant region of the VIP expression vector; light chain variable region of CIS43, as in the light chain of Dm1; human kappa light chain constant region of the VIP expression vector; Heavy and light chain are made from one transcript, separated by an F2A self-processing peptide; also called AAV-expressed CIS43; source: expressed …
Turning to B2, in assay [2], the Kd is 2.3 nM.
